Measurements as given in paper PMC8982406.

Molecular target: T1, ZC4H2 (wild type; mapping and mutation co-IPs), Q9NQZ6
T1 chain: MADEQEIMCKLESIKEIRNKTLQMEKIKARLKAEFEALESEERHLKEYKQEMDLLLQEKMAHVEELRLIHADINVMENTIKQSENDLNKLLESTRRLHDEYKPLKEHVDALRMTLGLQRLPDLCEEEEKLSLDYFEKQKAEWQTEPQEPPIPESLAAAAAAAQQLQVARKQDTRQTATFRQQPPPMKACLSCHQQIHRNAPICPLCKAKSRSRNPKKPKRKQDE
Experiment: co-IP (IP: FLAG, IB: myc), blot quantification
Conditions: chain shown with the change; hRLIM-myc + ZC4H2-FLAG, MG132 +, HEK293 cells; parent: 1.00

Row | Binder | ratio to parent
1 | full-length RLIM protein (wild type; mapping and mutation co-IPs), Q9NVW2 R599C (protein) MENSDSNDKGSGDQSAAQRRSQMDRLDREEAFYQFVNNLSEEDYRLMRDNNLLGTPGESTEEELLRRLQQIKEGPPPQNSDENRGGDSSDDVSNGDSIIDWLNSVRQTGNTTRSGQRGNQSWRAVSRTNPNSGDFRFSLEINVNRNNGSQNSENENEPSARRSSGENVENNSQRQVENPRSESTSARPSRSERNSTEALTEVPPTRGQRRARSRSPDHRRTRARAERSRSPLHPMSEIPRRSHHSISSQTFEHPLVNETEGSSRTRHHVTLRQQISGPELLSRGLFAASGTRNASQGAGSSDTAASGESTGSGQRPPTIVLDLQVRRVRPGEYRQRDSIASRTRSRSQTPNNTVTYESERGGFRRTFSRSERAGVRTYVSTIRIPIRRILNTGLSETTSVAIQTMLRQIMTGFGELSYFMYSDSDSEPTGSVSNRNMERAESRSGRGGSGGGSSSGSSSSSSSSSSSSSSSSSSSSPSSSSGGESSETSSDLFEGSNEGSSSSGSSGARREGRHRAPVTFDESGSLPFLSLAQFFLLNEDDDDQPRGLTKEQIDNLAMRSFGENDALKTCSVCITEYTEGNKLRKLPCSHEYHVHCIDCWLSENSTCPICRRAVLASGNRESVV | 0.65
2 | full-length RLIM protein (wild type; mapping and mutation co-IPs), Q9NVW2 R365C (protein) MENSDSNDKGSGDQSAAQRRSQMDRLDREEAFYQFVNNLSEEDYRLMRDNNLLGTPGESTEEELLRRLQQIKEGPPPQNSDENRGGDSSDDVSNGDSIIDWLNSVRQTGNTTRSGQRGNQSWRAVSRTNPNSGDFRFSLEINVNRNNGSQNSENENEPSARRSSGENVENNSQRQVENPRSESTSARPSRSERNSTEALTEVPPTRGQRRARSRSPDHRRTRARAERSRSPLHPMSEIPRRSHHSISSQTFEHPLVNETEGSSRTRHHVTLRQQISGPELLSRGLFAASGTRNASQGAGSSDTAASGESTGSGQRPPTIVLDLQVRRVRPGEYRQRDSIASRTRSRSQTPNNTVTYESERGGFRCTFSRSERAGVRTYVSTIRIPIRRILNTGLSETTSVAIQTMLRQIMTGFGELSYFMYSDSDSEPTGSVSNRNMERAESRSGRGGSGGGSSSGSSSSSSSSSSSSSSSSSSSSPSSSSGGESSETSSDLFEGSNEGSSSSGSSGARREGRHRAPVTFDESGSLPFLSLAQFFLLNEDDDDQPRGLTKEQIDNLAMRSFGENDALKTCSVCITEYTEGNKLRKLPCSHEYHVHCIDRWLSENSTCPICRRAVLASGNRESVV | 1.02
3 | full-length RLIM protein (wild type; mapping and mutation co-IPs), Q9NVW2 P587R (protein) MENSDSNDKGSGDQSAAQRRSQMDRLDREEAFYQFVNNLSEEDYRLMRDNNLLGTPGESTEEELLRRLQQIKEGPPPQNSDENRGGDSSDDVSNGDSIIDWLNSVRQTGNTTRSGQRGNQSWRAVSRTNPNSGDFRFSLEINVNRNNGSQNSENENEPSARRSSGENVENNSQRQVENPRSESTSARPSRSERNSTEALTEVPPTRGQRRARSRSPDHRRTRARAERSRSPLHPMSEIPRRSHHSISSQTFEHPLVNETEGSSRTRHHVTLRQQISGPELLSRGLFAASGTRNASQGAGSSDTAASGESTGSGQRPPTIVLDLQVRRVRPGEYRQRDSIASRTRSRSQTPNNTVTYESERGGFRRTFSRSERAGVRTYVSTIRIPIRRILNTGLSETTSVAIQTMLRQIMTGFGELSYFMYSDSDSEPTGSVSNRNMERAESRSGRGGSGGGSSSGSSSSSSSSSSSSSSSSSSSSPSSSSGGESSETSSDLFEGSNEGSSSSGSSGARREGRHRAPVTFDESGSLPFLSLAQFFLLNEDDDDQPRGLTKEQIDNLAMRSFGENDALKTCSVCITEYTEGNKLRKLRCSHEYHVHCIDRWLSENSTCPICRRAVLASGNRESVV | 0.72
4 | full-length RLIM protein (wild type; mapping and mutation co-IPs), Q9NVW2 Y356C (protein) MENSDSNDKGSGDQSAAQRRSQMDRLDREEAFYQFVNNLSEEDYRLMRDNNLLGTPGESTEEELLRRLQQIKEGPPPQNSDENRGGDSSDDVSNGDSIIDWLNSVRQTGNTTRSGQRGNQSWRAVSRTNPNSGDFRFSLEINVNRNNGSQNSENENEPSARRSSGENVENNSQRQVENPRSESTSARPSRSERNSTEALTEVPPTRGQRRARSRSPDHRRTRARAERSRSPLHPMSEIPRRSHHSISSQTFEHPLVNETEGSSRTRHHVTLRQQISGPELLSRGLFAASGTRNASQGAGSSDTAASGESTGSGQRPPTIVLDLQVRRVRPGEYRQRDSIASRTRSRSQTPNNTVTCESERGGFRRTFSRSERAGVRTYVSTIRIPIRRILNTGLSETTSVAIQTMLRQIMTGFGELSYFMYSDSDSEPTGSVSNRNMERAESRSGRGGSGGGSSSGSSSSSSSSSSSSSSSSSSSSPSSSSGGESSETSSDLFEGSNEGSSSSGSSGARREGRHRAPVTFDESGSLPFLSLAQFFLLNEDDDDQPRGLTKEQIDNLAMRSFGENDALKTCSVCITEYTEGNKLRKLPCSHEYHVHCIDRWLSENSTCPICRRAVLASGNRESVV | 0.91
5 | full-length RLIM protein (wild type; mapping and mutation co-IPs), Q9NVW2 P77L (protein) MENSDSNDKGSGDQSAAQRRSQMDRLDREEAFYQFVNNLSEEDYRLMRDNNLLGTPGESTEEELLRRLQQIKEGPPLQNSDENRGGDSSDDVSNGDSIIDWLNSVRQTGNTTRSGQRGNQSWRAVSRTNPNSGDFRFSLEINVNRNNGSQNSENENEPSARRSSGENVENNSQRQVENPRSESTSARPSRSERNSTEALTEVPPTRGQRRARSRSPDHRRTRARAERSRSPLHPMSEIPRRSHHSISSQTFEHPLVNETEGSSRTRHHVTLRQQISGPELLSRGLFAASGTRNASQGAGSSDTAASGESTGSGQRPPTIVLDLQVRRVRPGEYRQRDSIASRTRSRSQTPNNTVTYESERGGFRRTFSRSERAGVRTYVSTIRIPIRRILNTGLSETTSVAIQTMLRQIMTGFGELSYFMYSDSDSEPTGSVSNRNMERAESRSGRGGSGGGSSSGSSSSSSSSSSSSSSSSSSSSPSSSSGGESSETSSDLFEGSNEGSSSSGSSGARREGRHRAPVTFDESGSLPFLSLAQFFLLNEDDDDQPRGLTKEQIDNLAMRSFGENDALKTCSVCITEYTEGNKLRKLPCSHEYHVHCIDRWLSENSTCPICRRAVLASGNRESVV | 0.95
6 | full-length RLIM protein (wild type; mapping and mutation co-IPs), Q9NVW2 R387C (protein) MENSDSNDKGSGDQSAAQRRSQMDRLDREEAFYQFVNNLSEEDYRLMRDNNLLGTPGESTEEELLRRLQQIKEGPPPQNSDENRGGDSSDDVSNGDSIIDWLNSVRQTGNTTRSGQRGNQSWRAVSRTNPNSGDFRFSLEINVNRNNGSQNSENENEPSARRSSGENVENNSQRQVENPRSESTSARPSRSERNSTEALTEVPPTRGQRRARSRSPDHRRTRARAERSRSPLHPMSEIPRRSHHSISSQTFEHPLVNETEGSSRTRHHVTLRQQISGPELLSRGLFAASGTRNASQGAGSSDTAASGESTGSGQRPPTIVLDLQVRRVRPGEYRQRDSIASRTRSRSQTPNNTVTYESERGGFRRTFSRSERAGVRTYVSTIRIPICRILNTGLSETTSVAIQTMLRQIMTGFGELSYFMYSDSDSEPTGSVSNRNMERAESRSGRGGSGGGSSSGSSSSSSSSSSSSSSSSSSSSPSSSSGGESSETSSDLFEGSNEGSSSSGSSGARREGRHRAPVTFDESGSLPFLSLAQFFLLNEDDDDQPRGLTKEQIDNLAMRSFGENDALKTCSVCITEYTEGNKLRKLPCSHEYHVHCIDRWLSENSTCPICRRAVLASGNRESVV | 0.18
7 | full-length RLIM protein (wild type; mapping and mutation co-IPs), Q9NVW2 D598N (protein) MENSDSNDKGSGDQSAAQRRSQMDRLDREEAFYQFVNNLSEEDYRLMRDNNLLGTPGESTEEELLRRLQQIKEGPPPQNSDENRGGDSSDDVSNGDSIIDWLNSVRQTGNTTRSGQRGNQSWRAVSRTNPNSGDFRFSLEINVNRNNGSQNSENENEPSARRSSGENVENNSQRQVENPRSESTSARPSRSERNSTEALTEVPPTRGQRRARSRSPDHRRTRARAERSRSPLHPMSEIPRRSHHSISSQTFEHPLVNETEGSSRTRHHVTLRQQISGPELLSRGLFAASGTRNASQGAGSSDTAASGESTGSGQRPPTIVLDLQVRRVRPGEYRQRDSIASRTRSRSQTPNNTVTYESERGGFRRTFSRSERAGVRTYVSTIRIPIRRILNTGLSETTSVAIQTMLRQIMTGFGELSYFMYSDSDSEPTGSVSNRNMERAESRSGRGGSGGGSSSGSSSSSSSSSSSSSSSSSSSSPSSSSGGESSETSSDLFEGSNEGSSSSGSSGARREGRHRAPVTFDESGSLPFLSLAQFFLLNEDDDDQPRGLTKEQIDNLAMRSFGENDALKTCSVCITEYTEGNKLRKLPCSHEYHVHCINRWLSENSTCPICRRAVLASGNRESVV | 0.23
8 | full-length RLIM protein (wild type; mapping and mutation co-IPs), Q9NVW2 R611C (protein) MENSDSNDKGSGDQSAAQRRSQMDRLDREEAFYQFVNNLSEEDYRLMRDNNLLGTPGESTEEELLRRLQQIKEGPPPQNSDENRGGDSSDDVSNGDSIIDWLNSVRQTGNTTRSGQRGNQSWRAVSRTNPNSGDFRFSLEINVNRNNGSQNSENENEPSARRSSGENVENNSQRQVENPRSESTSARPSRSERNSTEALTEVPPTRGQRRARSRSPDHRRTRARAERSRSPLHPMSEIPRRSHHSISSQTFEHPLVNETEGSSRTRHHVTLRQQISGPELLSRGLFAASGTRNASQGAGSSDTAASGESTGSGQRPPTIVLDLQVRRVRPGEYRQRDSIASRTRSRSQTPNNTVTYESERGGFRRTFSRSERAGVRTYVSTIRIPIRRILNTGLSETTSVAIQTMLRQIMTGFGELSYFMYSDSDSEPTGSVSNRNMERAESRSGRGGSGGGSSSGSSSSSSSSSSSSSSSSSSSSPSSSSGGESSETSSDLFEGSNEGSSSSGSSGARREGRHRAPVTFDESGSLPFLSLAQFFLLNEDDDDQPRGLTKEQIDNLAMRSFGENDALKTCSVCITEYTEGNKLRKLPCSHEYHVHCIDRWLSENSTCPICCRAVLASGNRESVV | 0.17
